Results: patent publication US20250002593A1 (INMAGENE PTE, published 2025)

B1: 5F7 (antibody, V domains shown)
VH: EVKLVESGGGLVQPGGSLSLSCAASGFAFTDYYMNWVRQPPGKALEWLALIRNKAAGYTIYYSASVKGRFTISRDNSQSILYLQMTALRPEDSATYYCVRDMTIYDGYYVDYALDYWGQGTSVTVSS
VL: DIQMNQSPSSLSASLGDTITITCRASQNINIWLSWYQQKPGNIPKLFIYKASNLHTGVPSRFSGSGSGTDFTLTISSLQPEDIATYYCQQSQSYPLTFGAGTKLELK
notes: Mouse variable regions; also called chimeric antibody 5F7; 5F7 original molecular
B2: REGN14 (antibody, V domains shown)
VH: EVQLVESGGDLVQPGRSLRLSCAASGFTFDDYAMHWVRQAPGKGLEWVSVISWNSDVIAYSDSVKGRFTISRDNAKNSLYLQMNSLRTEDTALYYCTKGHKWSFFDYWGQGTLVTVSS
VL: EIVLTQSPATLSLSPGERATLSCRASQSISSYLAWYQQKPGQAPRLLIFNVANRATDIPARFSGSGSGTDFTLTISSLEPEDFAVYYCQQRSNWPLTFGGGTKVEIK
notes: also called benchmark antibody
B3: ANB019 (antibody, V domains shown)
VH: QVQLVQSGAEVKKPGASVKVSCKASGYTFTNYWMNWVRQAPRQGLEWMGMFHPTGDVTRLNQKFKDRVTMTRDTSTSTVYMELSSLRSEDTAVYYCARTTSMIIGGFAYWGQGTLVTVSS
VL: DIVMTQTPLSLSVTPGQPASISCRSSKSLLHRNAITYFYWYLHKPGQPPQLLIYQMSNLASGVPDRFSGSGSGTDFTLKISRVEAEDVGVYYCAQNLELPLTFGGGTKVEIK
notes: as for B2
B4: 9A6 (antibody, V domains shown)
VH: QVQLQQSGPGLMAPSQSLSITCTVSGFSLTSYDVSWIRQSPGKGLEWLGVIWTGGGTDYNSAFMSRLSITKDNSKSQVFLKMSSLQTDDTAIYYCVRVYYDPYYAMDYWGQGTSVTVSS
VL: DIVLTQSPAIMSASPGEKVTMTCSASSSVSSRYLHWYQQKSGASPKLWIYGTSNLASGVPARFSGSGSGTSYSLTISSVEAEDAATYYCQQYHSDPLTFGAGTKLELK
notes: Mouse variable regions; also called chimeric antibody 9A6

Experiments:
membrane hIL-36R [1] = target: T1, membrane hIL-36R (human, UniProt Q9HB29 20-575); test: cell-based or functional assay
T1 sequence: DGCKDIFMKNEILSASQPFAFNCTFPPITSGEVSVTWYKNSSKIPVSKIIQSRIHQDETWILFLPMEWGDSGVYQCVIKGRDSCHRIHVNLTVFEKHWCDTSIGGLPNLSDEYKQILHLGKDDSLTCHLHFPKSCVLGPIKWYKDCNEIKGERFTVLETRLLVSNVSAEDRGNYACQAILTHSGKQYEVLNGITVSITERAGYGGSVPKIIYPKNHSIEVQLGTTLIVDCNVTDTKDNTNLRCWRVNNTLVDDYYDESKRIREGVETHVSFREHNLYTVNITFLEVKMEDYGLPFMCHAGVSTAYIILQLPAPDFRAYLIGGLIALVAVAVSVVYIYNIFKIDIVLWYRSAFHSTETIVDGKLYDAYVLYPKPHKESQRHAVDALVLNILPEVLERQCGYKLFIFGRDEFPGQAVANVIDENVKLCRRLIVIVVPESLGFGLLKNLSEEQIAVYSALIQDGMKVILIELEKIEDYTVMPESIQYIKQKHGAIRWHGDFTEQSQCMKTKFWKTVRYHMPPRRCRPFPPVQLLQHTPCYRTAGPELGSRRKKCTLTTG

membrane hIL-36R [2] = target: T1, membrane hIL-36R; test: cell-based or functional assay; remark: listed apart in the source
[3] = target: T2, Recombinant hIL-36R protein (Acrobio, Cat #IL2-H52H6) (human, UniProt Q9HB29 20-335); test: BLI (Gator), antibody on Protein A sensor, hIL-36R analyte
T2 construct: Bought soluble protein; also called recombinant human IL-36R protein
T2 sequence: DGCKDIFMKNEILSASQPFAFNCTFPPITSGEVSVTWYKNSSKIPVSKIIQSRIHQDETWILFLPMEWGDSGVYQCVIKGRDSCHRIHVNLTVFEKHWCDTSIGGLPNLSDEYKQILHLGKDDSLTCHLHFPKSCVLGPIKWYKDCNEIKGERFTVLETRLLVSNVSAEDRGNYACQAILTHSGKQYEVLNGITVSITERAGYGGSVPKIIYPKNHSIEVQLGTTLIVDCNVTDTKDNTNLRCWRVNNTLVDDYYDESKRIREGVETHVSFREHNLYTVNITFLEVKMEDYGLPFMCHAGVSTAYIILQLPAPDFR

[4] = target: T2, Recombinant hIL-36R protein (Acrobio, …); test: BLI (Gator), antibody on Protein A sensor, hIL-36R analyte; column head prints koff(1/Ms)
[5] = target: T2, Recombinant hIL-36R protein (Acrobio, …); test: BLI (Gator), antibody on Protein A sensor, hIL-36R analyte; column head prints kon(1/s)
membrane hIL-36R [6] = target: T1, membrane hIL-36R; test: cell-based or functional assay; remark: listed apart in the source
membrane hIL-36R [7] = target: T1, membrane hIL-36R; test: cell-based or functional assay; remark: listed apart in the source
membrane hIL-36R [8] = target: T1, membrane hIL-36R; test: cell-based or functional assay; remark: listed apart in the source
membrane hIL-36R [9] = target: T1, membrane hIL-36R; test: cell-based or functional assay; remark: listed apart in the source
recombinant hIL-36R-his = target: T3, recombinant hIL-36R-his (human, UniProt Q9HB29 20-337); test: ELISA on coated recombinant hIL36R protein (1 µg/ml), detection with HRP anti-hIgG; unit taken from the x axis Ab(µg/mL)
T3 construct: Residues 1-337 (extracellular domain) are stated for the IL-36R-his used as immunogen; The range includes the signal peptide; no cleavage site is stated; also called recombinant hIL36R protein; recombinant human IL-36R-his protein; not shown: His tag
T3 sequence: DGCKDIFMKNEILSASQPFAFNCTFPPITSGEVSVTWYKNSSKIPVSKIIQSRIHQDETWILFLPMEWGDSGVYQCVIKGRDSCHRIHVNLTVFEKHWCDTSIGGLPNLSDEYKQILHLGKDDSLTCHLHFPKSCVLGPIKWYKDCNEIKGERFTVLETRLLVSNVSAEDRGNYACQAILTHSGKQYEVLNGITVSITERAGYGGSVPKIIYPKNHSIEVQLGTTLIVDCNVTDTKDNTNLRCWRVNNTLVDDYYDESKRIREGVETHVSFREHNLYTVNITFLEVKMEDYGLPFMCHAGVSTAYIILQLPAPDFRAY

[10] = target: T2, Recombinant hIL-36R protein (Acrobio, …); test: SPR (Biacore T200, 25 C), antibody captured by Fc, hIL-36R analyte
[11] = target: T4, Recombinant hIL1R1 protein (human, UniProt P14778 18-332, limits assumed); test: ELISA on coated recombinant hIL1R1 protein, detection with HRP anti-hIgG
T4 sequence (looked up): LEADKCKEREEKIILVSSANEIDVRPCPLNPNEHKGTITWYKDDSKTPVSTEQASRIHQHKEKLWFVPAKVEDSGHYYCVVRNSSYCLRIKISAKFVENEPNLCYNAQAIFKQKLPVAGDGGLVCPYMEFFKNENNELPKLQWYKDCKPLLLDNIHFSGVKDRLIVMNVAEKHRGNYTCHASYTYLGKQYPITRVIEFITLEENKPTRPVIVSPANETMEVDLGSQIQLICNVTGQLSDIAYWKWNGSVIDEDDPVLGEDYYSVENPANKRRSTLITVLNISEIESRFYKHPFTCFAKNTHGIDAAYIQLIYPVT

membrane hIL-36R [12] = target: T1, membrane hIL-36R; test: cell-based or functional assay; remark: listed apart in the source
membrane hIL-36R [13] = target: T1, membrane hIL-36R; test: flow cytometry on HEK293 cells transfected with pcDNA3.1-hIL36R, FITC anti-hIgG, MFI (median); unit taken from the x axis
membrane hIL-36R [14] = target: T1, membrane hIL-36R; test: cell-based or functional assay; remark: listed apart in the source
membrane hIL-36R [15] = target: T1, membrane hIL-36R; test: cell-based or functional assay; remark: listed apart in the source

Row | Binder | IC50, IL-36α induced IL-36R signaling (IL36R reporter assay, luciferase) (membrane hIL-36R [1]) [pM] | Kd [3] [pM] | koff [4] [s⁻¹] | kon [5] [M⁻¹ s⁻¹] | IC50, inhibition of IL-36β induced IL-6 release in primary human epithelial keratinocytes (HEK cells) [panel IL-6] (membrane hIL-36R [6]) [µg/mL] | IC50, inhibition of IL-36β induced IL-8 release in primary human epithelial keratinocytes (HEK cells) [panel IL-8] (membrane hIL-36R [6]) [µg/mL] | IC50, inhibition of IL-36β induced TNF-α release in primary human epithelial keratinocytes (HEK cells) [panel TNF-α] (membrane hIL-36R [6]) [µg/mL] | IC50, inhibition of IL-36α induced IL-8 release in A431 cells (IL-8 ELISA, OD450) [panel IL-36α] (membrane hIL-36R [7]) [µg/mL] | IC50, inhibition of IL-36β induced IL-8 release in A431 cells (IL-8 ELISA, OD450) [panel IL-36β] (membrane hIL-36R [7]) [µg/mL] | IC50, inhibition of IL-36γ induced IL-8 release in A431 cells (IL-8 ELISA, OD450) [panel IL-36γ] (membrane hIL-36R [7]) [µg/mL] | IC50, inhibition of IL-36α induced IL-8 release in primary human dermal fibroblast (HDF) cells (IL-8 ELISA, OD450) (membrane hIL-36R [8]) [µg/mL] | EC50 (recombinant hIL-36R-his) [µg/mL] | Kd [10] [pM] | koff [10] [s⁻¹] | kon [10] [M⁻¹ s⁻¹] | binding result [11] | IC50, inhibition of IL-36α induced IL-6 release in primary human epithelial keratinocytes (HEK cells) [panel IL-6] (membrane hIL-36R [12]) [µg/mL] | IC50, inhibition of IL-36α induced IL-8 release in primary human epithelial keratinocytes (HEK cells) [panel IL-8] (membrane hIL-36R [12]) [µg/mL] | IC50, inhibition of IL-36α induced TNF-α release in primary human epithelial keratinocytes (HEK cells) [panel TNF-α] (membrane hIL-36R [12]) [µg/mL] | EC50 (membrane hIL-36R [13]) [µg/mL] | other results
1 | B1 | 448 | 14600 | 0.000861 | 59100 | – | – | – | – | – | – | – | – | – | – | – | – | – | – | – | – | IC50, IL-36R reporter assay: inhibition of ligand induced luminescence in Jurkat-IL36R-IL1Racp-NFkB-luc cells (column printed '5F7-mus', taken as the '5F7 original molecular' of paragraph 330) (membrane hIL-36R [2]): 0.226 µg/mL
2 | B2 | – | – | – | – | 0.0225 | 0.253 | 0.0298 | 2.29 | 1.02 | 0.0627 | 0.0877 | 0.0106 | 3740 | 0.000283 | 75600 | no binding (tested: 1 µg/mL) | 1.73 | 1.47 | 0.353 | 0.0582 | IC50, IL-36R reporter assay: inhibition of ligand induced luminescence in Jurkat-IL36R-IL1Racp-NFkB-luc cells (printed REGN-14) (membrane hIL-36R [2]): 0.169 µg/mL; IC50, IL-36R reporter assay: inhibition of IL-36α induced luminescence in Jurkat-IL36R-IL1Racp-NFkB-luc cells (printed REGN-14) (membrane hIL-36R [9]): 83.9 pM; IC50, inhibition of IL-36γ induced IL-6 release in primary human epithelial keratinocytes (HEK cells) [panel IL-6] (membrane hIL-36R [14]): 0.148 µg/mL; IC50, inhibition of IL-36γ induced IL-8 release in primary human epithelial keratinocytes (HEK cells) [panel IL-8] (membrane hIL-36R [14]): 0.114 µg/mL; IC50, inhibition of IL-36γ induced TNF-α release in primary human epithelial keratinocytes (HEK cells) [panel TNF-α] (membrane hIL-36R [14]): 0.0347 µg/mL
3 | B3 | – | – | – | – | 0.094 | 0.35 | 0.0577 | 1.58 | 0.496 | 0.0474 | 0.106 | 0.0228 | 13200 | 0.000444 | 33500 | no binding (tested: 1 µg/mL) | 1.35 | 1.15 | 0.266 | 0.119 | IC50, IL-36R reporter assay: inhibition of ligand induced luminescence in Jurkat-IL36R-IL1Racp-NFkB-luc cells (membrane hIL-36R [15]): 0.0324 µg/mL; IC50, inhibition of IL-36γ induced IL-6 release in primary human epithelial keratinocytes (HEK cells) [panel IL-6] (membrane hIL-36R [14]): 0.159 µg/mL; IC50, inhibition of IL-36γ induced IL-8 release in primary human epithelial keratinocytes (HEK cells) [panel IL-8] (membrane hIL-36R [14]): 0.187 µg/mL; IC50, inhibition of IL-36γ induced TNF-α release in primary human epithelial keratinocytes (HEK cells) [panel TNF-α] (membrane hIL-36R [14]): 0.0726 µg/mL
4 | B4 | 312 | 20.5 | 8.14e-07 | 39700 | – | – | – | – | – | – | – | – | – | – | – | – | – | – | – | – | –
